7 molecules from patent publication US20140087995A1 (published 2014) can be followed below.

Numbered stars: 1 amine (or outer) side, 2 acyl side, 3 side chain; on linkers, the order of the positions; unused ones are H or OH. Bridge positions count the residues as written; N and C are the ends. Side chains are listed from the residue outwards. Ends that are not written are not given here. * marks the point of attachment. C20 diacid = O=C(O)CCCCCCCCCCCCCCCCCCC(=O)*; γGlu = O=C(O)[C@H](CCC(=O)[*:2])N[*:1]; AEEA = NCCOCCOCC(=O)O

In the assay the target is T1, human calcitonin receptor (human, UniProt P30988 25-474).
T1 construct: whole, on cells; Used as cell membranes prepared from the transfected BHK cells (Assay VII), not as intact cells; also called hCTR; hCT
T1 sequence (looked up): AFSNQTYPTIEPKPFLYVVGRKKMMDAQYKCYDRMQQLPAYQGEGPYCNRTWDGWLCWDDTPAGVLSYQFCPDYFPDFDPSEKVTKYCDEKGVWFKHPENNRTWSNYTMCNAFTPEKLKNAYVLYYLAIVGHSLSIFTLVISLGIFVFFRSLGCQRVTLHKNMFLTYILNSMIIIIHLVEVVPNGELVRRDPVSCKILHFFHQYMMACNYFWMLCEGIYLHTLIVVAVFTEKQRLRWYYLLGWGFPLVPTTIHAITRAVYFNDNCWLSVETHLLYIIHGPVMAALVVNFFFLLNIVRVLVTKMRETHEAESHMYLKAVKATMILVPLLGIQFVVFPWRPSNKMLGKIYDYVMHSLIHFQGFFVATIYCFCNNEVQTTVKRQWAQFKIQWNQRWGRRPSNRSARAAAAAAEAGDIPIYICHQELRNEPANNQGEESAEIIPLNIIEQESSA
Description: SPA competition against 125I-calcitonin, membranes with human calcitonin receptor (Assay VII). In short, it runs like this: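 BHK hCTR membranes 35 ng/μL + SPA beads 0.05 mg/well; buffer 50 mM Hepes pH 7.4, 1 mM CaCl2, 5 mM MgCl₂, 0.1% OA, 0.02% Tween20. 120 min, 25° C., shaking. Scintillation count; IC50 by one-site binding competition.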

B1: N^ε1-[2-[2-[2-[[(4S)-4-carboxy-4-(19-carboxynonadecanoylamino)butanoyl]amino]ethoxy]ethoxy]acetyl]-[Arg17,Pro21,Pro27]-h-amylin (peptide)
peptide: K([AEEA-γGlu-C20 diacid])CNTATCATQRLANFLRHSSPNFGAIPSSTNVGSNTY-NH2
modifications: disulfide 2-7; N-terminus assumed
SMILES: CC[C@H](C)[C@H](NC(=O)[C@H](C)NC(=O)CNC(=O)[C@H](Cc1ccccc1)NC(=O)[C@H](CC(N)=O)NC(=O)[C@@H]1CCCN1C(=O)[C@H](CO)NC(=O)[C@H](CO)NC(=O)[C@H](Cc1c[nH]cn1)NC(=O)[C@H](CCCNC(=N)N)NC(=O)[C@H](CC(C)C)NC(=O)[C@H](Cc1ccccc1)NC(=O)[C@H](CC(N)=O)NC(=O)[C@H](C)NC(=O)[C@H](CC(C)C)NC(=O)[C@H](CCCNC(=N)N)NC(=O)[C@H](CCC(N)=O)NC(=O)[C@@H](NC(=O)[C@H](C)NC(=O)[C@@H]1CSSC[C@H](NC(=O)[C@@H](N)CCCCNC(=O)COCCOCCNC(=O)CC[C@H](NC(=O)CCCCCCCCCCCCCCCCCCC(=O)O)C(=O)O)C(=O)N[C@@H](CC(N)=O)C(=O)N[C@@H]([C@@H](C)O)C(=O)N[C@@H](C)C(=O)N[C@@H]([C@@H](C)O)C(=O)N1)[C@@H](C)O)C(=O)N1CCC[C@H]1C(=O)N[C@@H](CO)C(=O)N[C@@H](CO)C(=O)N[C@H](C(=O)N[C@@H](CC(N)=O)C(=O)N[C@H](C(=O)NCC(=O)N[C@@H](CO)C(=O)N[C@@H](CC(N)=O)C(=O)N[C@H](C(=O)N[C@@H](Cc1ccc(O)cc1)C(N)=O)[C@@H](C)O)C(C)C)[C@@H](C)O
notes: also called compound 41
Consider B1, for which the IC50 was 21.3 nM.

B2: N^ε1-[2-[2-[2-(19-carboxynonadecanoylamino)ethoxy]ethoxy]acetyl]-[Arg17,Pro21,Pro27]-h-amylin (peptide)
peptide: K([AEEA-C20 diacid])CNTATCATQRLANFLRHSSPNFGAIPSSTNVGSNTY-NH2
modifications: disulfide 2-7; N-terminus assumed
SMILES: CC[C@H](C)[C@H](NC(=O)[C@H](C)NC(=O)CNC(=O)[C@H](Cc1ccccc1)NC(=O)[C@H](CC(N)=O)NC(=O)[C@@H]1CCCN1C(=O)[C@H](CO)NC(=O)[C@H](CO)NC(=O)[C@H](Cc1c[nH]cn1)NC(=O)[C@H](CCCNC(=N)N)NC(=O)[C@H](CC(C)C)NC(=O)[C@H](Cc1ccccc1)NC(=O)[C@H](CC(N)=O)NC(=O)[C@H](C)NC(=O)[C@H](CC(C)C)NC(=O)[C@H](CCCNC(=N)N)NC(=O)[C@H](CCC(N)=O)NC(=O)[C@@H](NC(=O)[C@H](C)NC(=O)[C@@H]1CSSC[C@H](NC(=O)[C@@H](N)CCCCNC(=O)COCCOCCNC(=O)CCCCCCCCCCCCCCCCCCC(=O)O)C(=O)N[C@@H](CC(N)=O)C(=O)N[C@@H]([C@@H](C)O)C(=O)N[C@@H](C)C(=O)N[C@@H]([C@@H](C)O)C(=O)N1)[C@@H](C)O)C(=O)N1CCC[C@H]1C(=O)N[C@@H](CO)C(=O)N[C@@H](CO)C(=O)N[C@H](C(=O)N[C@@H](CC(N)=O)C(=O)N[C@H](C(=O)NCC(=O)N[C@@H](CO)C(=O)N[C@@H](CC(N)=O)C(=O)N[C@H](C(=O)N[C@@H](Cc1ccc(O)cc1)C(N)=O)[C@@H](C)O)C(C)C)[C@@H](C)O
notes: also called compound 43
For B2, the IC50 stood at 2.64 nM.

B3: N^α1-[(4S)-4-carboxy-4-(19-carboxynonadecanoylamino)butanoyl]-[Glu14,Arg17,Pro21,Pro25,Pro28,Pro29]-h-amylin (peptide)
peptide: {C20 diacid-γGlu}-KCNTATCATQRLAEFLRHSSPNFGPILPPTNVGSNTY-NH2
modifications: disulfide 2-7
SMILES: CC[C@H](C)[C@H](NC(=O)[C@@H]1CCCN1C(=O)CNC(=O)[C@H](Cc1ccccc1)NC(=O)[C@H](CC(N)=O)NC(=O)[C@@H]1CCCN1C(=O)[C@H](CO)NC(=O)[C@H](CO)NC(=O)[C@H](Cc1c[nH]cn1)NC(=O)[C@H](CCCNC(=N)N)NC(=O)[C@H](CC(C)C)NC(=O)[C@H](Cc1ccccc1)NC(=O)[C@H](CCC(=O)O)NC(=O)[C@H](C)NC(=O)[C@H](CC(C)C)NC(=O)[C@H](CCCNC(=N)N)NC(=O)[C@H](CCC(N)=O)NC(=O)[C@@H](NC(=O)[C@H](C)NC(=O)[C@@H]1CSSC[C@H](NC(=O)[C@H](CCCCN)NC(=O)CC[C@H](NC(=O)CCCCCCCCCCCCCCCCCCC(=O)O)C(=O)O)C(=O)N[C@@H](CC(N)=O)C(=O)N[C@@H]([C@@H](C)O)C(=O)N[C@@H](C)C(=O)N[C@@H]([C@@H](C)O)C(=O)N1)[C@@H](C)O)C(=O)N[C@@H](CC(C)C)C(=O)N1CCC[C@H]1C(=O)N1CCC[C@H]1C(=O)N[C@H](C(=O)N[C@@H](CC(N)=O)C(=O)N[C@H](C(=O)NCC(=O)N[C@@H](CO)C(=O)N[C@@H](CC(N)=O)C(=O)N[C@H](C(=O)N[C@@H](Cc1ccc(O)cc1)C(N)=O)[C@@H](C)O)C(C)C)[C@@H](C)O
notes: also called compound 6
On to B3, for which the IC50 is 19.9 nM.

B4: N^α1-[2-[2-[2-[[2-[2-[2-[[(4S)-4-carboxy-4-(19-carboxynonadecanoylamino)butanoyl]amino]ethoxy]ethoxy]acetyl]amino]ethoxy]ethoxy]acetyl]-[Arg17,Pro21,Pro27]-h-am … (peptide)
peptide: KCNTATCATQRLANFLRHSSPNFGAIPSSTNVGSNTY
modifications: C20 diacid-gGlu-2xOEG on the alpha amino group of the N-terminal Lys1; disulfide Cys2-Cys7; C-terminal amide
notes: also called compound 24
As for B4, the IC50 is 102 nM.

B5: N^ε-[(4S)-4-carboxy-4-(19-carboxynonadecanoylamino)butanoyl]Lys[Arg1,Arg17,Pro21,Pro27,His35]-h-amylin (peptide)
peptide: K([γGlu-C20 diacid])RCNTATCATQRLANFLRHSSPNFGAIPSSTNVGSHTY-NH2
modifications: disulfide 3-8; N-terminus assumed
SMILES: CC[C@H](C)[C@H](NC(=O)[C@H](C)NC(=O)CNC(=O)[C@H](Cc1ccccc1)NC(=O)[C@H](CC(N)=O)NC(=O)[C@@H]1CCCN1C(=O)[C@H](CO)NC(=O)[C@H](CO)NC(=O)[C@H](Cc1c[nH]cn1)NC(=O)[C@H](CCCNC(=N)N)NC(=O)[C@H](CC(C)C)NC(=O)[C@H](Cc1ccccc1)NC(=O)[C@H](CC(N)=O)NC(=O)[C@H](C)NC(=O)[C@H](CC(C)C)NC(=O)[C@H](CCCNC(=N)N)NC(=O)[C@H](CCC(N)=O)NC(=O)[C@@H](NC(=O)[C@H](C)NC(=O)[C@@H]1CSSC[C@H](NC(=O)[C@H](CCCNC(=N)N)NC(=O)[C@@H](N)CCCCNC(=O)CC[C@H](NC(=O)CCCCCCCCCCCCCCCCCCC(=O)O)C(=O)O)C(=O)N[C@@H](CC(N)=O)C(=O)N[C@@H]([C@@H](C)O)C(=O)N[C@@H](C)C(=O)N[C@@H]([C@@H](C)O)C(=O)N1)[C@@H](C)O)C(=O)N1CCC[C@H]1C(=O)N[C@@H](CO)C(=O)N[C@@H](CO)C(=O)N[C@H](C(=O)N[C@@H](CC(N)=O)C(=O)N[C@H](C(=O)NCC(=O)N[C@@H](CO)C(=O)N[C@@H](Cc1c[nH]cn1)C(=O)N[C@H](C(=O)N[C@@H](Cc1ccc(O)cc1)C(N)=O)[C@@H](C)O)C(C)C)[C@@H](C)O
notes: also called compound 44
For B5, the IC50 turned out to be 4.87 nM.

B6: N^ε1-[(4S)-4-carboxy-4-[[(4S)-4-carboxy-4-(19-carboxynonadecanoylamino)butanoyl]amino]butanoyl]-[Asp14,Arg17,Pro22,Pro26,Asp35]-h-amylin (peptide)
peptide: K([γGlu-γGlu-C20 diacid])CNTATCATQRLADFLRHSSNPFGAPLSSTNVGSDTY-NH2
modifications: disulfide 2-7; N-terminus assumed
SMILES: CC(C)C[C@H](NC(=O)[C@H](CCCNC(=N)N)NC(=O)[C@H](CCC(N)=O)NC(=O)[C@@H](NC(=O)[C@H](C)NC(=O)[C@@H]1CSSC[C@H](NC(=O)[C@@H](N)CCCCNC(=O)CC[C@H](NC(=O)CC[C@H](NC(=O)CCCCCCCCCCCCCCCCCCC(=O)O)C(=O)O)C(=O)O)C(=O)N[C@@H](CC(N)=O)C(=O)N[C@@H]([C@@H](C)O)C(=O)N[C@@H](C)C(=O)N[C@@H]([C@@H](C)O)C(=O)N1)[C@@H](C)O)C(=O)N[C@@H](C)C(=O)N[C@@H](CC(=O)O)C(=O)N[C@@H](Cc1ccccc1)C(=O)N[C@@H](CC(C)C)C(=O)N[C@@H](CCCNC(=N)N)C(=O)N[C@@H](Cc1c[nH]cn1)C(=O)N[C@@H](CO)C(=O)N[C@@H](CO)C(=O)N[C@@H](CC(N)=O)C(=O)N1CCC[C@H]1C(=O)N[C@@H](Cc1ccccc1)C(=O)NCC(=O)N[C@@H](C)C(=O)N1CCC[C@H]1C(=O)N[C@@H](CC(C)C)C(=O)N[C@@H](CO)C(=O)N[C@@H](CO)C(=O)N[C@H](C(=O)N[C@@H](CC(N)=O)C(=O)N[C@H](C(=O)NCC(=O)N[C@@H](CO)C(=O)N[C@@H](CC(=O)O)C(=O)N[C@H](C(=O)N[C@@H](Cc1ccc(O)cc1)C(N)=O)[C@@H](C)O)C(C)C)[C@@H](C)O
notes: also called compound 3
Consider B6, for which the IC50 was 19.5 nM.

B7: N{Alpha-1}-[(4S)-4-carboxy-4-(19-carboxynonadecanoylamino)butanoyl]-[Glu14,Arg17,Pro21,Pro27,Lys34]-h-amylin (peptide)
peptide: {C20 diacid-γGlu}-KCNTATCATQRLAEFLRHSSPNFGAIPSSTNVGKNTY-NH2
modifications: disulfide 2-7
SMILES: CC[C@H](C)[C@H](NC(=O)[C@H](C)NC(=O)CNC(=O)[C@H](Cc1ccccc1)NC(=O)[C@H](CC(N)=O)NC(=O)[C@@H]1CCCN1C(=O)[C@H](CO)NC(=O)[C@H](CO)NC(=O)[C@H](Cc1c[nH]cn1)NC(=O)[C@H](CCCNC(=N)N)NC(=O)[C@H](CC(C)C)NC(=O)[C@H](Cc1ccccc1)NC(=O)[C@H](CCC(=O)O)NC(=O)[C@H](C)NC(=O)[C@H](CC(C)C)NC(=O)[C@H](CCCNC(=N)N)NC(=O)[C@H](CCC(N)=O)NC(=O)[C@@H](NC(=O)[C@H](C)NC(=O)[C@@H]1CSSC[C@H](NC(=O)[C@H](CCCCN)NC(=O)CC[C@H](NC(=O)CCCCCCCCCCCCCCCCCCC(=O)O)C(=O)O)C(=O)N[C@@H](CC(N)=O)C(=O)N[C@@H]([C@@H](C)O)C(=O)N[C@@H](C)C(=O)N[C@@H]([C@@H](C)O)C(=O)N1)[C@@H](C)O)C(=O)N1CCC[C@H]1C(=O)N[C@@H](CO)C(=O)N[C@@H](CO)C(=O)N[C@H](C(=O)N[C@@H](CC(N)=O)C(=O)N[C@H](C(=O)NCC(=O)N[C@@H](CCCCN)C(=O)N[C@@H](CC(N)=O)C(=O)N[C@H](C(=O)N[C@@H](Cc1ccc(O)cc1)C(N)=O)[C@@H](C)O)C(C)C)[C@@H](C)O
notes: also called compound 36
B7: the IC50 stood at 6.3 nM.
